In US20130212721:
Where a chain is given by its changes, count along the chain named.

Legend:
[1] = tested on: T1, human FEAT protein (faint expression in normal tissues, aberrant overexpression in tumors)
T1 sequence: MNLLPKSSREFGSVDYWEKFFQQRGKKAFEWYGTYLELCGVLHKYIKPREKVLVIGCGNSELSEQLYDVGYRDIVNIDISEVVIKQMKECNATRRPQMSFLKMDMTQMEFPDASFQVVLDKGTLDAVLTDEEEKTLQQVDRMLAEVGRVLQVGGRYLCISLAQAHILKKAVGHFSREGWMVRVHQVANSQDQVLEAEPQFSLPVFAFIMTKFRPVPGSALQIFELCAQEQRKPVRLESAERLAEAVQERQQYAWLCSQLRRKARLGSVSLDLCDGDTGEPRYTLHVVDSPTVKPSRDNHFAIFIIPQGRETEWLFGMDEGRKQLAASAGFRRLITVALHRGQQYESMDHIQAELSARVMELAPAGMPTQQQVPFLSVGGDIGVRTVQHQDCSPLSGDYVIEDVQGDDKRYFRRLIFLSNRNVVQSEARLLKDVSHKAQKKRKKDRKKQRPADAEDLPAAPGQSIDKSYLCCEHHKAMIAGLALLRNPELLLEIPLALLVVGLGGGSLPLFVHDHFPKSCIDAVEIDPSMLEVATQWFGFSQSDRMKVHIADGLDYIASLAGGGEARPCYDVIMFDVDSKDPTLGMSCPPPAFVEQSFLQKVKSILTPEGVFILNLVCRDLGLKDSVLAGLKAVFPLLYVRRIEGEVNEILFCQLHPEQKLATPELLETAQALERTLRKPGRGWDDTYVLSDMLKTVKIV

[2] = tested on: T2, human FEAT D274A/D288A mutant
T2 sequence: T1 sequence with D274A, D288A

## His-tagged recombinant caspase-6
[1]
  cleavage of in vitro transcribed/translated [35S]-FEAT (SDS-PAGE, autoradiography): FEAT transcribed/translated in vitro was cleaved by caspase-3, but not by caspase-6

## His-tagged recombinant caspase-3
[2]
  caspase-3 cleavage of FEAT with Asp-to-Ala mutations in the cleavage sites: are resistant to caspase-3 cleavage
[1]
  cleavage of in vitro transcribed/translated [35S]-FEAT (SDS-PAGE, autoradiography): FEAT transcribed/translated in vitro was cleaved by caspase-3, but not by caspase-6
